Molecular target: T1, His-tagged Arc, wild type, purified, Q9WV31
T1 chain: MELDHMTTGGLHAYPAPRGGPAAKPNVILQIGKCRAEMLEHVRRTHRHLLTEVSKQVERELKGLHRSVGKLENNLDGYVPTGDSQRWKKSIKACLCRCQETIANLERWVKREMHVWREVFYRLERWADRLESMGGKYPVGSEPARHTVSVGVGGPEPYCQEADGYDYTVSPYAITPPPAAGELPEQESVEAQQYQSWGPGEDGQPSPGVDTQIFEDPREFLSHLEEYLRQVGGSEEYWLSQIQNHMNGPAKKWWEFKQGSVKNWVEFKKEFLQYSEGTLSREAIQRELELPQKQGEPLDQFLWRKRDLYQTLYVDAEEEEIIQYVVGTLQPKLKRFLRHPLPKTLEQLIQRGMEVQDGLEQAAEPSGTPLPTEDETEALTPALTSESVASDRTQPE
Assay: SDS-PAGE under non-reducing conditions; purified His-Arc in SDS sample buffer without 2-mercaptoethanol, heated 5 min at 95°C; total protein stain and anti-Arc immunoblot
Conditions: remark: other sources report otherwise

B1: His-tagged Arc, wild type, purified, Q9WV31 1-396 (natural protein)
chain: T1 chain
- stoichiometry N: 2
